Assays:
Assay in all cases: SEC
[1] = target: SARS-CoV-2 Nsp15 R207S (SARS-CoV-2)
[2] = target: SARS-CoV-2 Nsp15 K260R (SARS-CoV-2)
[3] = target: SARS-CoV-2 Nsp15 T34I (SARS-CoV-2)
[4] = target: SARS-CoV-2 Nsp15 T115A (SARS-CoV-2)
[5] = target: SARS-CoV-2 Nsp15 P206S (SARS-CoV-2)
[6] = target: SARS-CoV-2 Nsp15 D133Y (SARS-CoV-2)
[7] = target: SARS-CoV-2 Nsp15 G18E (SARS-CoV-2)
[8] = target: SARS-CoV-2 Nsp15 V128F (SARS-CoV-2)
[9] = target: SARS-CoV-2 Nsp15 L163F (SARS-CoV-2)
[10] = target: SARS-CoV-2 Nsp15 D220Y (SARS-CoV-2)
[11] = target: SARS-CoV-2 Nsp15 W333C (SARS-CoV-2)
[12] = target: SARS-CoV-2 Nsp15 A93S (SARS-CoV-2)
[13] = target: SARS-CoV-2 Nsp15 K13N (SARS-CoV-2)
[14] = target: SARS-CoV-2 Nsp15 K13R (SARS-CoV-2)
[15] = target: SARS-CoV-2 Nsp15 K290N (SARS-CoV-2)
[16] = target: SARS-CoV-2 Nsp15 G18R (SARS-CoV-2)
[17] = target: SARS-CoV-2 Nsp15 H235Y (SARS-CoV-2)

SARS-CoV-2 Nsp15 R207S (enzyme)
Hex/Mono Ratio [1]: 0.14

SARS-CoV-2 Nsp15 K260R (enzyme)
Hex/Mono Ratio [2]: 1.8

SARS-CoV-2 Nsp15 T34I (enzyme)
Hex/Mono Ratio [3]: 1.01

SARS-CoV-2 Nsp15 T115A (enzyme)
Hex/Mono Ratio [4]: 0.55

SARS-CoV-2 Nsp15 P206S (enzyme)
Hex/Mono Ratio [5]: 2.49

SARS-CoV-2 Nsp15 D133Y (enzyme)
Hex/Mono Ratio [6]: 0.48

SARS-CoV-2 Nsp15 G18E (enzyme)
Hex/Mono Ratio [7]: 0.56

SARS-CoV-2 Nsp15 V128F (enzyme)
Hex/Mono Ratio [8]: 0.5

SARS-CoV-2 Nsp15 L163F (enzyme)
Hex/Mono Ratio [9]: 0.23

SARS-CoV-2 Nsp15 D220Y (enzyme)
Hex/Mono Ratio [10]: 0.63

SARS-CoV-2 Nsp15 W333C (enzyme)
Hex/Mono Ratio [11]: 0.77

SARS-CoV-2 Nsp15 A93S (enzyme)
Hex/Mono Ratio [12]: 0.49

SARS-CoV-2 Nsp15 K13N (enzyme)
Hex/Mono Ratio [13]: 0.63

SARS-CoV-2 Nsp15 K13R (enzyme)
Hex/Mono Ratio [14]: 1.18

SARS-CoV-2 Nsp15 K290N (enzyme)
Hex/Mono Ratio [15]: 2.12

SARS-CoV-2 Nsp15 G18R (enzyme)
Hex/Mono Ratio [16]: 0.88

SARS-CoV-2 Nsp15 H235Y (enzyme)
Hex/Mono Ratio [17]: 1.61

From publication doi:10.1101/2022.05.10.491349
